# Source: US20030194400
# Target: Fn-TF:Factor VIIa complex (UniProt P08709)
# Sequence (chain, as listed by the source, chain 1 of 2): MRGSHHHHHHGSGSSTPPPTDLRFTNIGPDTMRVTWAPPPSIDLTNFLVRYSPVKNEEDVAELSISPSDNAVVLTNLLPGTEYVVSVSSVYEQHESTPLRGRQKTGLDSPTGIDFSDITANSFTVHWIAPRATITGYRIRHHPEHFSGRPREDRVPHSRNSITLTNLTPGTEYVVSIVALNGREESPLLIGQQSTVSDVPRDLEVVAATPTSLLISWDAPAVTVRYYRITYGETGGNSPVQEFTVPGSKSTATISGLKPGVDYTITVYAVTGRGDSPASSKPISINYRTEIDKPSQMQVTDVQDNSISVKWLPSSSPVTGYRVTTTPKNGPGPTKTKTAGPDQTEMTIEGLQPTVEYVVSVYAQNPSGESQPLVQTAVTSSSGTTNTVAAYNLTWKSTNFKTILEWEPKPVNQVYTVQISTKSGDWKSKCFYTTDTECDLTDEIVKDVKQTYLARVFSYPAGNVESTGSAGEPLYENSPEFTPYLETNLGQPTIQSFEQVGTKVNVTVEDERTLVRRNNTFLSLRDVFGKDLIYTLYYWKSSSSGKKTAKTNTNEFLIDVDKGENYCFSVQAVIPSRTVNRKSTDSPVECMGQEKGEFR
# Sequence (P08709 61-466, chain 2 of 2): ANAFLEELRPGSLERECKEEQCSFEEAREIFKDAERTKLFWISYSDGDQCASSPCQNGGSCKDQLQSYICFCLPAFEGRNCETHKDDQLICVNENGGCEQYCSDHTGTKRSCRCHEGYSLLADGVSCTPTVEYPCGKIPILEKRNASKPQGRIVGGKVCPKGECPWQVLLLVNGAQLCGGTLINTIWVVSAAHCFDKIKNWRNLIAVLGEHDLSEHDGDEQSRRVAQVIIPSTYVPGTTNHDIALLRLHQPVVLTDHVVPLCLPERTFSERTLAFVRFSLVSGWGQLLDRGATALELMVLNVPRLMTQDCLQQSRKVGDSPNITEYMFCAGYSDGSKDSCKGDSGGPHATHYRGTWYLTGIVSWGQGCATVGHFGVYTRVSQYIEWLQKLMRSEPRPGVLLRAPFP
# Sequence of Factor X (chain): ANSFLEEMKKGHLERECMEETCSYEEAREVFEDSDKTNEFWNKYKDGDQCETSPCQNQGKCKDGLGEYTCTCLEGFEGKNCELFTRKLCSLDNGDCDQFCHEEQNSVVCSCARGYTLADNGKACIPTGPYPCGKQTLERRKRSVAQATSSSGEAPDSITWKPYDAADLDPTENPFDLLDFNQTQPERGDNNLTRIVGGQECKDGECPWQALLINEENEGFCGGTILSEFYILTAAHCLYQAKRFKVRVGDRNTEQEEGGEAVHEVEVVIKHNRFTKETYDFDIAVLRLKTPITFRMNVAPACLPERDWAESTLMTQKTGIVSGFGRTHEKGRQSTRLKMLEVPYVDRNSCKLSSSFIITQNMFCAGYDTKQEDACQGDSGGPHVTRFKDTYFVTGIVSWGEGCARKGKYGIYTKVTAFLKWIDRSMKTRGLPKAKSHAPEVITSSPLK
substance,measurement,value
Factor X,"proteolytic activity toward Factor X (Factor Xa generation, Spectrozyme FXa)",The increasing concentration of Fn-TF led to increased proteolytic activity similar to the curve obtained with TF1-218
